Data taken from US11904004B2, “Anti-CD277 antibodies” (INSTITUT NATIONAL DE LA SANTE ET DE LA RECHERCHE MEDICALE …, priority 2010, dated 2024).

Experiments:
Format in all cases: cell-based, human
CD4+ T cells [1] = assay: Functional assay on CD4+ T cells with aAPC, CFSE labeling and cytokine ELISA
Procedure: Human CD4^+ T cells were purified by negative selection from PBMCs using magnetic beads (Miltenyi Biotec) according to the manufacturer's protocol. CD4+ T cells were routinely more than 97% pure.
CD4^+ T cells were labelled with 0.5 μM CFSE (Invitrogen) for 10 min at 37° C., washed and stimulated (1.5×10^5 cells/well) with aAPC at a ratio of 1:1 (cells to beads) comprised of magnetic beads in triplicate in 96-well round-bottom plates (Falcon; BD Biosciences). Cultures were incubated at 37° C., 5% CO2 for 5 days and then proliferation of CFSE labelled CD4^+ T cells were measured by flow cytometry (FACS Canto, […]).
Magnetic beads (DYNABEADS® M-450 Epoxy, Dynal Biotech) were coated with the following mAbs as described in Serriari et al. (serriari, ji 2010): anti-CD3 (OKT3), anti-human CD28 (CD28.2), and/or various concentrations of anti-human CD277 (CD277, 20.1) or IgG1 or anti-MHC class I (MHC I) (YJ4) or IgG1. These aAPCs were coated with suboptimal anti-CD3 Ab (5%), suboptimal levels of anti-CD28 Ab (10%), and either IgG1 Ab (CD3/CD28/IgG1), anti-CD277 Ab (CD3/CD28/CD277+IgG1) or anti-MHC class I (CD3/28/anti-MHC class I+IgG1), constituting the remaining 85% of protein added to the bead. The amount of protein was kept constant at […] by the addition of control IgG 1. […]

iDC = assay: Costimulatory molecules expression on iDC, flow cytometry; settings: coated mAb
Procedure: Blood samples were obtained from 5 healthy volunteers enrolled among the staff members, after informed consent. Monocytes were separated from peripheral blood mononuclear cells, and isolated using the MACS CD14 isolation kit (Miltenyi Biotech, Auburn, Calif. USA). Monocytes were cultured for 5 days with 200 ng/ml of recombinant human GM-CSF and 10 ng/ml recombinant human IL-4 (Schering-Plough Research Institute). These cells were termed immature dendritic cells (iDC). To achieve the stimulation, monocytes and iDC were cultured with 10 ng/ml of LPS, ligand for TLR4, 30 μg/ml of 8848 (Sigma-Aldrich, Milano, Italy), ligand for TLR7/8 and with […] of poly (I:C) (Sigma-Aldrich), ligand for TLR3, and were harvested after 48 h. The cells were cultured in RPMI 1640 supplemented with 10% heat-inactivated FCS, 5 mM L-glutamine and 50 IU/ml penicillin-streptomycin (from here on referred to as complete medium).
Monocytes and iDCs before and after stimulation were analysed by imunofluorescence flow cytometry (FACScalibur Becton Dickinson, Milano, Italy) to verify their activation state. […]

CD4+ T cells [2] = assay: AKT and ERK phosphorylation, phosphoflow
Procedure: Human CD4^+ T cells were purified by negative selection from PBMCs using magnetic beads (MILTENYI BIOTEC®) according to the manufacturer's protocol. CD4 T cells were routinely more than 97% pure. Cells were incubated 24 hours in RPMI 1640 10% FBS at 37° C.
CD4^+ T cells were washed and stimulated at different times (2, 5, 10 and 30 minutes) with aAPC at a ratio of 1:3 (cells to beads) comprised of magnetic beads (DYNABEADS® M-450 Epoxy, Dynal Biotech) were coated with the following mAbs: anti-CD3 (OKT3), anti-human CD28 (CD28.2), and/or various concentrations of anti-human CD277 (CD277. 20.1 clone) or isotype control IgG1. These aAPCs were coated with suboptimal anti-CD3 Ab (5%), suboptimal levels of anti-CD28 Ab (10%), and either IgG1 Ab (CD3/CD28/IgG1), anti-CD277.20.1 Ab (CD3/CD28/CD277.20.1+IgG1), constituting the remaining 85% of protein added to the bead. The amount of protein was kept constant at […] by the addition of control IgG1. We examined the effect of mAbs CD277 clones engagement on AKT and ERK phosphorylation in CD4+T cells by PHOSPHOFLOW® proteomic method, which uses state-specific antibodies to detect target phosphoproteins by fluorescence-activated cell sorting (FACS). We assessed the activity of the signalling pathways after exposure of the cells to beads stimulations. We apply a sandwich-labeling method, which involves the application of a biotin-conjugated secondary antibody followed by detection with fluorescently conjugated streptavidin. […] Cells were permeabilized, fixed and analyzed after intracellular staining of the target phosphproteins (AKT and ERK) by the use of CYTOFIX/CYTOPERM® KIT and perm/wash buffer (BD Biosciences).

[3] = antibody-coated beads, anti-CD3 plus anti-CD277
[4] = with anti-CD3 plus anti-CD28, 2, 5, 10 and 30 minutes, dose and time dependent

B1: mAb 20.1: murine anti-CD277 antibody obtainable from the hybridoma CNCM I-4402; agonist (antibody, V domains shown)
VH: QVQLQQSGAELVKPGASVKLSCKASGYTFTRYYLYWVKQRPGQGLEWIGEINPNNGGTKFNEKFKSKATLTVDKSSRTTYIQLSSLTSEDSAVYYCSREDDYDGTPDAMDYWGQGTAVTVSS
VL: DIQMNQSPSSLSASLGDTITITCHASQNINLWLSWYQQRPGNIPKLLIYRASNLHTGVPSRFSGSGSATGFTLTISSLQPEDIATYYCQQGHSYPYTFGGGTKLDIK
Question: Which results are given for B1?
Answer: secretion of cytokines induced by anti-CD3 and anti-CD28 stimulation (INFg, IL-2, IL-10) (CD4+ T cells [1]; dose-dependent, supernatants day 2): increased; cells entered division (CFSE dilution) (CD4+ T cells [1]; with anti-CD3 plus anti-CD28 on beads, day 5, anti-CD277 at 17 μg/ml): 90%; expression of CD80, CD86 and HLA-DR on iDC (iDC): increased expression; phosphorylation of AKT (CD4+ T cells [2]; [3]): induced the phosphorylation; phosphorylation of ERK (CD4+ T cells [2]; [3]): induced the phosphorylation; phosphorylation of AKT induced by CD3+CD28 stimulation (CD4+ T cells [2]; [4]): strongly up regulated; phosphorylation of ERK induced by CD3+CD28 stimulation (CD4+ T cells [2]; [4]): strongly up regulated
